The record followed here is EP1418184A1.

The assay has as its target IL-12 receptor on activated peripheral blood lymphocytes (human) (UniProt P42701). Description: cell-based or functional assay.

In the case of HRS3-scFv-hi-IL-12 fusion protein, the IFN-gamma secretion of preactivated T cells (ELISA, 48 h), activity against natural IL-12 at equimolar amounts (times lower than IL-12) is 5 to 10.
